Measurements reported in patent US20150307603A1 (MODIQUEST B V, published 2015).
Non-standard residues stand in square brackets, D forms with d. No end group written: not given here. Cit = NC(=O)NCCC[C@H](N)C(=O)O

Legend:
[1] = target: T1, huPAD4-deiminated human recombinant histone 2A (human); test: ELISA, Ab 0.0032 ug/well
T1 construct: also called H2A/p4; histone 2A/p4
Description: (§1) The resulting OD (y-axis) is a measure for antibody binding. H1-recombinant histone 1; H1/p2-huPAD2 recombinant histone 1; H1/p4-huPAD4 recombinant histone 1, and so forth (x-axis).

CFC-1 [2] = target: T2, CFC-1; test: ELISA, Ab 2 ug/well
T2 construct: Positive control for anti-citrulline reactivity; also called cfc1 XG; Cfc1-peptide
Description: as §1

[3] = target: T3, huPAD2-deiminated human recombinant histone 2A (human); test: ELISA, Ab 2 ug/well
T3 construct: also called H2A/p2; histone 2A/p2
Description: as §1

[4] = target: T4, huPAD2-deiminated human recombinant histone 3 (human); test: ELISA, Ab 2 ug/well
T4 construct: also called H3/p2; histone 3/p2
Description: as §1

[5] = target: T5, human recombinant histone 2A (human); test: ELISA, Ab 2 ug/well
T5 construct: Non-deiminated; also called H2A
Description: as §1

[6] = target: T1, huPAD4-deiminated human recombinant …; test: ELISA, Ab 2 ug/well
Description: as §1

[7] = target: T6, huPAD2-deiminated human recombinant histone 2B (human); test: ELISA, Ab 2 ug/well
T6 construct: also called H2B/p2
Description: as §1

[8] = target: T7, human recombinant histone 2B (human); test: ELISA, Ab 2 ug/well
T7 construct: Non-deiminated; also called H2B
Description: as §1

[9] = target: T8, human recombinant histone 4 (human, UniProt P62805 2-103); test: ELISA, Ab 2 ug/well
Description: as §1

[10] = target: T9, huPAD4-deiminated human recombinant histone 2B (human); test: ELISA, Ab 2 ug/well
T9 construct: also called H2B/p4
Description: as §1

[11] = target: T10, huPAD4-deiminated human recombinant histone 3 (human); test: ELISA, Ab 2 ug/well
T10 construct: also called H3/p4
Description: as §1

[12] = target: T3, huPAD2-deiminated human recombinant …; test: ELISA, Ab 0.000128 ug/well
Description: as §1

[13] = target: T4, huPAD2-deiminated human recombinant …; test: ELISA, Ab 0.000128 ug/well
Description: as §1

[14] = target: T6, huPAD2-deiminated human recombinant …; test: ELISA, Ab 0.000128 ug/well
Description: as §1

[15] = target: T7, human recombinant histone 2B; test: ELISA, Ab 0.000128 ug/well
Description: as §1

[16] = target: T8, human recombinant histone 4; test: ELISA, Ab 0.000128 ug/well
Description: as §1

[17] = target: T9, huPAD4-deiminated human recombinant …; test: ELISA, Ab 0.000128 ug/well
Description: as §1

[18] = target: T10, huPAD4-deiminated human recombinant …; test: ELISA, Ab 0.000128 ug/well
Description: as §1

msVim XS/XL = target: T11, msVim XS/XL (mouse, also: biotin-labelled); test: ELISA, Ab 0.0032 ug/well
T11 construct: also called mouse vimentin peptide
T11 peptide: YVT[Cit]SSAV[Cit]L[Cit]SSVP
Protocol: (§2) Biotin and citrulline-containing peptides derived from fibrinogen and vimentin were immobilized on NEUTRAVIDIN®-coated 96-well ELISA plates (0.3 μg/well). CFC-1 and CFC-0 were coated at the same concentration and served as positive and negative controls, respectively, for specific anti-citrulline reactivity and as coating controls. Non-coated wells were used to test for aspecific binding of the antibodies. […] Detection of bound anti-citrulline antibodies was performed by incubating the wells with rabbit anti-human HRP (1:2000) for 1 hour at RT followed by incubation with TMB substrate. The resulting OD (y-axis) is a measure for antibody binding.
(§3) Biotin-labeled and citrulline-containing fibrinogen and vimentin peptides (Table 5) were also tested for reactivity with the therapeutic antibodies. Peptides were coated on 96-well NEUTRAVIDIN®-ELISA plates.

CFC-1 [19] = target: T2, CFC-1; test: ELISA, Ab 0.0032 ug/well
Protocol: as §2, §3

msFibβ XG = target: T12, msFibβ XG (mouse, also: biotin-labelled); test: ELISA, Ab 0.0032 ug/well
T12 construct: also called mouse fibrinogen β peptide
T12 peptide: EPTDSLDA[Cit]GHRPVDRR
Protocol: as §2, §3

msFibα XH = target: T13, msFibα XH (mouse, X at position 15 = citrulline; biotin-labelled); test: ELISA, Ab 0.0032 ug/well
T13 peptide: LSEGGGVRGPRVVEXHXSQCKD
Protocol: as §2, §3

huFibα XG = target: T14, huFibα XG (human, X at position 8 = citrulline; biotin-labelled); test: ELISA, Ab 0.0032 ug/well
T14 peptide: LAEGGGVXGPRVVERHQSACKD
Protocol: as §2, §3

huFibα XH = target: T15, huFibα XH (human, X at position 15 = citrulline; biotin-labelled); test: ELISA, Ab 0.0032 ug/well
T15 peptide: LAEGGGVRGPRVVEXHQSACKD
Protocol: as §2, §3

msFibα XG = target: T16, msFibα XG (mouse, X at position 8 = citrulline; biotin-labelled); test: ELISA, Ab 0.0032 ug/well
T16 peptide: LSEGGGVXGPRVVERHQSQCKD
Protocol: as §2, §3

CFC-1 [20] = target: T2, CFC-1; test: ELISA, Ab 0.016 ug/well
Protocol: as §2, with “histone 2A” for “fibrinogen and vimentin”

[21] = target: T17, peptide no. 3 (human histone 2A) (human, also: biotin-labelled); test: ELISA, Ab 0.016 ug/well
T17 construct: also called peptide 3
T17 peptide: KSRSS[Cit]AGLQFP
Protocol: as §2, with “histone 2A” for “fibrinogen and vimentin”

[22] = target: T18, peptide no. 1 (human histone 2A) (human, also: biotin-labelled); test: ELISA, Ab 0.016 ug/well
T18 construct: also called peptide 1; AAASGXGKQGGK
T18 peptide: AAASG[Cit]GKQGGK
Protocol: as §2, with “histone 2A” for “fibrinogen and vimentin”

[23] = target: T19, peptide no. 4 (human histone 2A) (human, also: biotin-labelled); test: ELISA, Ab 0.016 ug/well
T19 construct: also called peptide 4
T19 peptide: QFPVG[Cit]VHRLLR
Protocol: as §2, with “histone 2A” for “fibrinogen and vimentin”

B1: RhmAb2.102 (antibody, human IgG1, lambda)
heavy: not shown
light: QSVLTQPPSMSAAPGQKVTISCSGSSSNIGNNYVSWYQQVPGTAPKLLIYDDNKRPSGIPGRFSGSKSATSATLGITGLQAGDEADYYCGSWDDNLSVVLFGGGTKLTVLGQPKAAPSVTLFPPSSEELQANKATLVCLISDFYPGAVTVAWKADSSPVKAGVETTTPSKQSNNKYAASSYLSLTPEQWKSHRSYSCQVTHEGSTVEKTVAPTECS
notes: Human IgG1 lambda; also called Rhm2.102
OD [1]: 0.135 OD450 | OD (CFC-1 [2]): 3.38 OD450 | OD [3]: 3.18 OD450 | OD [4]: 1.94 OD450 | OD [5]: 0.115 OD450 | OD [6]: 3.13 OD450 | OD [7]: 0.086 OD450 | OD [8]: 0.076 OD450 | OD [9]: 0.208 OD450 | OD [10]: 0.069 OD450 | OD [11]: 0.439 OD450 | OD [12]: 0.063 OD450 | OD [13]: 0.066 OD450 | OD [14]: 0.051 OD450 | OD [15]: 0.052 OD450 | OD [16]: 0.06 OD450 | OD [17]: 0.053 OD450 | OD [18]: 0.06 OD450 | OD (msVim XS/XL): 0.142 OD450 | OD (CFC-1 [19]): 0.506 OD450 | OD (msFibβ XG): 0.12 OD450 | OD (msFibα XH): 0.085 OD450 | OD (huFibα XG): 0.125 OD450 | OD (huFibα XH): 0.123 OD450 | OD (msFibα XG): 0.125 OD450 | OD (CFC-1 [20]): 1.46 OD450 | OD [21]: 0.07 OD450 | OD [22]: 0.843 OD450 | OD [23]: 0.084 OD450
